Results: patent publication US20260167699A1 (Chugai, published 2026)

B1: GpH7-A5/GpH7-B3 variant L234_03V/GpL16-k0 (antibody, human IgG1, kappa)
heavy 1: not shown
heavy 2: not shown
light: DIVMTQSPLSLPVTPGEPASISCQASESLVHSNRNTYLHWYLQKPGQSPQLLIYKVSNRFSGVPDRFSGSGSGTDFTLKISRVEAEDVGVYYCSQNTHVPPTFGQGTKVEIERTVAAPSVFIFPPSDEQLKSGTASVVCLLNNFYPREAKVQWKVDNALQSGNSQESVTEQDSKDSTYSLSSTLTLSKADYEKHKVYACEVTHQGLSSPVTKSFNRGEC
notes: He Ab; copies: 1 + 1 + 2
B2: GpH7-A5/GpH7-B3 variant L235_18N/GpL16-k0 (antibody, human IgG1, kappa)
heavy 1: not shown
heavy 2: not shown
light: B1 light
notes: He Ab; copies: 1 + 1 + 2
B3: GpH7-A5/GpH7-B3 variant L328_15Y/GpL16-k0 (antibody, human IgG1, kappa)
heavy 1: not shown
heavy 2: not shown
light: B1 light
notes: He Ab; copies: 1 + 1 + 2
B4: GpH7-A5/GpH7-B3 variant L234_04F/GpL16-k0 (antibody, human IgG1, kappa)
heavy 1: not shown
heavy 2: not shown
light: B1 light
notes: He Ab; copies: 1 + 1 + 2
B5: GpH7-A5/GpH7-B3 variant L234_10E/GpL16-k0 (antibody, human IgG1, kappa)
heavy 1: not shown
heavy 2: not shown
light: B1 light
notes: He Ab; copies: 1 + 1 + 2
B6: GpH7-A5/GpH7-B3 variant L235_15Y/GpL16-k0 (antibody, human IgG1, kappa)
heavy 1: not shown
heavy 2: not shown
light: B1 light
notes: He Ab; copies: 1 + 1 + 2
B7: GpH7-A5/GpH7-B3 variant L328_06M/GpL16-k0 (antibody, human IgG1, kappa)
heavy 1: not shown
heavy 2: not shown
light: B1 light
notes: He Ab; copies: 1 + 1 + 2
B8: GpH7-A5/GpH7-B3 variant L234_16H/GpL16-k0 (antibody, human IgG1, kappa)
heavy 1: not shown
heavy 2: not shown
light: B1 light
notes: He Ab; copies: 1 + 1 + 2
B9: GpH7-A5/GpH7-B3 variant L328_16H/GpL16-k0 (antibody, human IgG1, kappa)
heavy 1: not shown
heavy 2: not shown
light: B1 light
notes: He Ab; copies: 1 + 1 + 2
B10: GpH7-A5/GpH7-B3 variant L235_06M/GpL16-k0 (antibody, human IgG1, kappa)
heavy 1: not shown
heavy 2: not shown
light: B1 light
notes: He Ab; copies: 1 + 1 + 2
B11: GpH7-A5/GpH7-B3 variant P271_07I/GpL16-k0 (antibody, human IgG1, kappa)
heavy 1: not shown
heavy 2: not shown
light: B1 light
notes: He Ab; copies: 1 + 1 + 2
B12: GpH7-A5/GpH7-B3 variant L328_18N/GpL16-k0 (antibody, human IgG1, kappa)
heavy 1: not shown
heavy 2: not shown
light: B1 light
notes: He Ab; copies: 1 + 1 + 2
B13: GpH7-A5/GpH7-B3 variant L235_13S/GpL16-k0 (antibody, human IgG1, kappa)
heavy 1: not shown
heavy 2: not shown
light: B1 light
notes: He Ab; copies: 1 + 1 + 2
B14: GpH7-A5/GpH7-B3 variant L234_13S/GpL16-k0 (antibody, human IgG1, kappa)
heavy 1: not shown
heavy 2: not shown
light: B1 light
notes: He Ab; copies: 1 + 1 + 2
B15: GpH7-A5/GpH7-B3 variant L235_14T/GpL16-k0 (antibody, human IgG1, kappa)
heavy 1: not shown
heavy 2: not shown
light: B1 light
notes: He Ab; copies: 1 + 1 + 2
B16: GpH7-A5/GpH7-B3 variant L234_07I/GpL16-k0 (antibody, human IgG1, kappa)
heavy 1: not shown
heavy 2: not shown
light: B1 light
notes: He Ab; copies: 1 + 1 + 2
B17: GpH7-A5/GpH7-B3 variant P271_03V/GpL16-k0 (antibody, human IgG1, kappa)
heavy 1: not shown
heavy 2: not shown
light: B1 light
notes: He Ab; copies: 1 + 1 + 2
B18: GpH7-A5/GpH7-B3 variant L234_15Y/GpL16-k0 (antibody, human IgG1, kappa)
heavy 1: not shown
heavy 2: not shown
light: B1 light
notes: He Ab; copies: 1 + 1 + 2
B19: GpH7-A5/GpH7-B3 variant L328_02A/GpL16-k0 (antibody, human IgG1, kappa)
heavy 1: not shown
heavy 2: not shown
light: B1 light
notes: He Ab; copies: 1 + 1 + 2
B20: GpH7-A5/GpH7-B3 variant L235_03V/GpL16-k0 (antibody, human IgG1, kappa)
heavy 1: not shown
heavy 2: not shown
light: B1 light
notes: He Ab; copies: 1 + 1 + 2
B21: GpH7-A5/GpH7-B3 variant L234_06M/GpL16-k0 (antibody, human IgG1, kappa)
heavy 1: not shown
heavy 2: not shown
light: B1 light
notes: He Ab; copies: 1 + 1 + 2
B22: GpH7-A5/GpH7-B3 variant P238_10E/GpL16-k0 (antibody, human IgG1, kappa)
heavy 1: not shown
heavy 2: not shown
light: B1 light
notes: He Ab; copies: 1 + 1 + 2
B23: GpH7-A5/GpH7-B3 variant P238_15Y/GpL16-k0 (antibody, human IgG1, kappa)
heavy 1: not shown
heavy 2: not shown
light: B1 light
notes: He Ab; copies: 1 + 1 + 2
B24: GpH7-A5/GpH7-B3 variant N325_13S/GpL16-k0 (antibody, human IgG1, kappa)
heavy 1: not shown
heavy 2: not shown
light: B1 light
notes: He Ab; copies: 1 + 1 + 2
B25: GpH7-A5/GpH7-B3 variant L235_16H/GpL16-k0 (antibody, human IgG1, kappa)
heavy 1: not shown
heavy 2: not shown
light: B1 light
notes: He Ab; copies: 1 + 1 + 2
B26: GpH7-A5/GpH7-B3 variant P271_02A/GpL16-k0 (antibody, human IgG1, kappa)
heavy 1: not shown
heavy 2: not shown
light: B1 light
notes: He Ab; copies: 1 + 1 + 2
B27: GpH7-A5/GpH7-B3 variant L328_13S/GpL16-k0 (antibody, human IgG1, kappa)
heavy 1: not shown
heavy 2: not shown
light: B1 light
notes: He Ab; copies: 1 + 1 + 2
B28: GpH7-A5/GpH7-B3 variant L234_09D/GpL16-k0 (antibody, human IgG1, kappa)
heavy 1: not shown
heavy 2: not shown
light: B1 light
notes: He Ab; copies: 1 + 1 + 2
B29: GpH7-A5/GpH7-B3 variant L234_05P/GpL16-k0 (antibody, human IgG1, kappa)
heavy 1: not shown
heavy 2: not shown
light: B1 light
notes: He Ab; copies: 1 + 1 + 2
B30: GpH7-A5/GpH7-B3 variant L234_20W/GpL16-k0 (antibody, human IgG1, kappa)
heavy 1: not shown
heavy 2: not shown
light: B1 light
notes: He Ab; copies: 1 + 1 + 2
B31: GpH7-A5/GpH7-B3 variant P271_01G/GpL16-k0 (antibody, human IgG1, kappa)
heavy 1: not shown
heavy 2: not shown
light: B1 light
notes: He Ab; copies: 1 + 1 + 2
B32: GpH7-A5/GpH7-B3 variant N325_09D/GpL16-k0 (antibody, human IgG1, kappa)
heavy 1: not shown
heavy 2: not shown
light: B1 light
notes: He Ab; copies: 1 + 1 + 2
B33: GpH7-A5/GpH7-B3 variant L235_07I/GpL16-k0 (antibody, human IgG1, kappa)
heavy 1: not shown
heavy 2: not shown
light: B1 light
notes: He Ab; copies: 1 + 1 + 2
B34: GpH7-A5/GpH7-B3 variant L235_10E/GpL16-k0 (antibody, human IgG1, kappa)
heavy 1: not shown
heavy 2: not shown
light: B1 light
notes: He Ab; copies: 1 + 1 + 2
B35: GpH7-A5/GpH7-B3 variant N325_16H/GpL16-k0 (antibody, human IgG1, kappa)
heavy 1: not shown
heavy 2: not shown
light: B1 light
notes: He Ab; copies: 1 + 1 + 2
B36: GpH7-A5/GpH7-B3 variant L235_04F/GpL16-k0 (antibody, human IgG1, kappa)
heavy 1: not shown
heavy 2: not shown
light: B1 light
notes: He Ab; copies: 1 + 1 + 2
B37: GpH7-A5/GpH7-B3 variant L235_02A/GpL16-k0 (antibody, human IgG1, kappa)
heavy 1: not shown
heavy 2: not shown
light: B1 light
notes: He Ab; copies: 1 + 1 + 2
B38: GpH7-A5/GpH7-B3 variant L328_14T/GpL16-k0 (antibody, human IgG1, kappa)
heavy 1: not shown
heavy 2: not shown
light: B1 light
notes: He Ab; copies: 1 + 1 + 2
B39: GpH7-A5/GpH7-B3 variant L235_05P/GpL16-k0 (antibody, human IgG1, kappa)
heavy 1: not shown
heavy 2: not shown
light: B1 light
notes: He Ab; copies: 1 + 1 + 2
B40: GpH7-A5/GpH7-B3 variant L328_03V/GpL16-k0 (antibody, human IgG1, kappa)
heavy 1: not shown
heavy 2: not shown
light: B1 light
notes: He Ab; copies: 1 + 1 + 2
B41: GpH7-A5/GpH7-B3 variant L235_19Q/GpL16-k0 (antibody, human IgG1, kappa)
heavy 1: not shown
heavy 2: not shown
light: B1 light
notes: He Ab; copies: 1 + 1 + 2
B42: GpH7-A5/GpH7-B3 variant L328_04F/GpL16-k0 (antibody, human IgG1, kappa)
heavy 1: not shown
heavy 2: not shown
light: B1 light
notes: He Ab; copies: 1 + 1 + 2
B43: GpH7-A5/GpH7-B3 variant P238_08L/GpL16-k0 (antibody, human IgG1, kappa)
heavy 1: not shown
heavy 2: not shown
light: B1 light
notes: He Ab; copies: 1 + 1 + 2
B44: GpH7-A5/GpH7-B3 variant L234_19Q/GpL16-k0 (antibody, human IgG1, kappa)
heavy 1: not shown
heavy 2: not shown
light: B1 light
notes: He Ab; copies: 1 + 1 + 2
B45: GpH7-A5/GpH7-B3 variant L235_20W/GpL16-k0 (antibody, human IgG1, kappa)
heavy 1: not shown
heavy 2: not shown
light: B1 light
notes: He Ab; copies: 1 + 1 + 2
B46: GpH7-A5/GpH7-B3 variant P238_09D/GpL16-k0 (antibody, human IgG1, kappa)
heavy 1: not shown
heavy 2: not shown
light: B1 light
notes: He Ab; copies: 1 + 1 + 2
B47: GpH7-A5/GpH7-B3 variant L234_18N/GpL16-k0 (antibody, human IgG1, kappa)
heavy 1: not shown
heavy 2: not shown
light: B1 light
notes: He Ab; copies: 1 + 1 + 2
B48: GpH7-A5/GpH7-B3 variant L235_09D/GpL16-k0 (antibody, human IgG1, kappa)
heavy 1: not shown
heavy 2: not shown
light: B1 light
notes: He Ab; copies: 1 + 1 + 2
B49: GpH7-A5/GpH7-B3 variant L234_14T/GpL16-k0 (antibody, human IgG1, kappa)
heavy 1: not shown
heavy 2: not shown
light: B1 light
notes: He Ab; copies: 1 + 1 + 2
B50: GpH7-A5/GpH7-B3 variant L328_19Q/GpL16-k0 (antibody, human IgG1, kappa)
heavy 1: not shown
heavy 2: not shown
light: B1 light
notes: He Ab; copies: 1 + 1 + 2
B51: GpH7-A5/GpH7-B3 variant P271_04F/GpL16-k0 (antibody, human IgG1, kappa)
heavy 1: not shown
heavy 2: not shown
light: B1 light
notes: He Ab; copies: 1 + 1 + 2
B52: GpH7-A5/GpH7-B3 variant L235_01G/GpL16-k0 (antibody, human IgG1, kappa)
heavy 1: not shown
heavy 2: not shown
light: B1 light
notes: He Ab; copies: 1 + 1 + 2
B53: GpH7-A5/GpH7-B3 variant L328_07I/GpL16-k0 (antibody, human IgG1, kappa)
heavy 1: not shown
heavy 2: not shown
light: B1 light
notes: He Ab; copies: 1 + 1 + 2
B54: GpH7-A5/GpH7-B3 variant P271_06M/GpL16-k0 (antibody, human IgG1, kappa)
heavy 1: not shown
heavy 2: not shown
light: B1 light
notes: He Ab; copies: 1 + 1 + 2
B55: GpH7-A5/GpH7-B3 variant P271_08L/GpL16-k0 (antibody, human IgG1, kappa)
heavy 1: not shown
heavy 2: not shown
light: B1 light
notes: He Ab; copies: 1 + 1 + 2
B56: GpH7-A5/GpH7-B3 variant P238_19Q/GpL16-k0 (antibody, human IgG1, kappa)
heavy 1: not shown
heavy 2: not shown
light: B1 light
notes: He Ab; copies: 1 + 1 + 2

Biological target: T1, FcγRIIIa extracellular domain, C-terminal His tag (human, UniProt P08637 17-208)
T1 construct: extracellular domain; also called 3a
T1 sequence (P08637 other isoform, or with tags, fused parts or gaps): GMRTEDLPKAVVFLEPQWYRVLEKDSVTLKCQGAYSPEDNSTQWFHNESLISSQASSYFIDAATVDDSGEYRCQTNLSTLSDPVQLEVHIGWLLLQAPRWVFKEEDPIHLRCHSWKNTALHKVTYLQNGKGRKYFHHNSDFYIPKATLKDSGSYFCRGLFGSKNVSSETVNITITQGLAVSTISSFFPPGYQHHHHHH
Assay: SPR, binding activity relative to GpH7-A5/GpH7-B3/GpL16-k0 (=100)

Binder	He/Con 3a
B1	88.3%
B2	65%
B3	70.2%
B4	114%
B5	111%
B6	77.8%
B7	80.8%
B8	76.8%
B9	55.9%
B10	75.6%
B11	80.2%
B12	51.1%
B13	67.2%
B14	68.1%
B15	73.2%
B16	99.5%
B17	73.5%
B18	126%
B19	81.3%

Binder	He/Con 3a
B20	94.6%
B21	82.9%
B22	98.9%
B23	61%
B24	71.9%
B25	57.1%
B26	83.7%
B27	73.7%
B28	113%
B29	85.1%
B30	103%
B31	119%
B32	53%
B33	92.8%
B34	85.6%
B35	68%
B36	76.4%
B37	72%
B38	77.4%

Binder	He/Con 3a
B39	68.6%
B40	80.9%
B41	68.1%
B42	81.5%
B43	71.3%
B44	77.1%
B45	73.8%
B46	100%
B47	88.2%
B48	88.5%
B49	69.8%
B50	83.4%
B51	65.6%
B52	56.7%
B53	86.4%
B54	74%
B55	74.5%
B56	52.7%
